Results taken from publication PMC5615192 (mBio, 2017).

Tests used:
[1] = molecular target: the molecule itself; test: crystal structure
[2] = molecular target: T1, HPV59 L1 pentamer (human papillomavirus type 59); test: ELISA
T1 chain: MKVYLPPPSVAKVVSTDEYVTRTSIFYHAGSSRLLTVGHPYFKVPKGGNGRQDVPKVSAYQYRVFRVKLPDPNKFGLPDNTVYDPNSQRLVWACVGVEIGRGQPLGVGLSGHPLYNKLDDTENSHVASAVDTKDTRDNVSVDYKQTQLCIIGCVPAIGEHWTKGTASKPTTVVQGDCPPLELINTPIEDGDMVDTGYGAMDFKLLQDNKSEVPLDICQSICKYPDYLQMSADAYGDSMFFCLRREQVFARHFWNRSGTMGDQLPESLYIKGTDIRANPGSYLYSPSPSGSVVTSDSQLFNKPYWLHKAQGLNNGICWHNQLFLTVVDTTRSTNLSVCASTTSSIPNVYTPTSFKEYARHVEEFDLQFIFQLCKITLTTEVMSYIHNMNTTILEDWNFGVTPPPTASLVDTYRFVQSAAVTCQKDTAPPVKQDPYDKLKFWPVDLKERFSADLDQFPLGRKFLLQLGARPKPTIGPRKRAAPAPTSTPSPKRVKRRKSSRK

[3] = molecular target: T2, HPV59 L1 VLP (human papillomavirus type 59); test: ELISA
T2 chain: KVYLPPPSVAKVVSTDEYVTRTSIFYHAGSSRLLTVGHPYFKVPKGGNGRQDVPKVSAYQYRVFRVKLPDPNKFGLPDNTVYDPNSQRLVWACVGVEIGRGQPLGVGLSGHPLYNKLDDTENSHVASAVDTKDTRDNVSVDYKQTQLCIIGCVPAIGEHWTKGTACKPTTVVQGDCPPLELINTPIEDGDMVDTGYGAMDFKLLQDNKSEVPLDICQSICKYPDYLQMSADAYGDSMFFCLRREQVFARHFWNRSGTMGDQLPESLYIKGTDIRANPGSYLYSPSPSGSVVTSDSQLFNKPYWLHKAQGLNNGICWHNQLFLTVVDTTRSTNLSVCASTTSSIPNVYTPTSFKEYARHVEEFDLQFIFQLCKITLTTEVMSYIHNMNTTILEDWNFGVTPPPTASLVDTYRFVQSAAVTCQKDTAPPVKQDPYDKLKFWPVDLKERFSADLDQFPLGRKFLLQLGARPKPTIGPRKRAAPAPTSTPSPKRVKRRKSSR

[4] = molecular target: HPV59 L1 pentamer Q270A (human papillomavirus type 59); test: ELISA; indirect ELISA; wells coated with wild-type or mutant VLPs or pentamers (300 ng/well, overnight at 4°C); 2-fold serial dilutions of the antibody, 1 h at 37°C; detected with HRP goat anti-mouse IgG
[5] = molecular target: HPV59 L1 pentamer M267A (human papillomavirus type 59); test: as above
[6] = molecular target: HPV18 TQG L1 VLP (triple mutant T270Q, Q273E, G281D) (human papillomavirus type 18)
[7] = molecular target: T3, HPV58 L1 VLP (human papillomavirus type 58, UniProt P26535 34-524); test: ELISA
T3 chain: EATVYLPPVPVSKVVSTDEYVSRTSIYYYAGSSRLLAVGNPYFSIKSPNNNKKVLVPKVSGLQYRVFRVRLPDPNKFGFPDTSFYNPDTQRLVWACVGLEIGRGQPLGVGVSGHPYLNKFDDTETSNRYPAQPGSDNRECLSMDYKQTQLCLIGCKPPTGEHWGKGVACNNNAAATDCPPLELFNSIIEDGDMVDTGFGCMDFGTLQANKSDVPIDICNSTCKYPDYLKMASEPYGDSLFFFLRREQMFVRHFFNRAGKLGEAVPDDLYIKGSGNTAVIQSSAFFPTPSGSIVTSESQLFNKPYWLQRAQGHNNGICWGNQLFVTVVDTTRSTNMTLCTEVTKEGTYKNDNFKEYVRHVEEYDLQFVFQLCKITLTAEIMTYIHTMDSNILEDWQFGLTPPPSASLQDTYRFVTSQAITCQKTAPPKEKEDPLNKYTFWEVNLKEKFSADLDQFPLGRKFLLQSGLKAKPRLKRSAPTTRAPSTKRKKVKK

[8] = molecular target: T4, HPV58 L1 pentamer (human papillomavirus type 58, UniProt P26535 34-524); test: ELISA
T4 chain: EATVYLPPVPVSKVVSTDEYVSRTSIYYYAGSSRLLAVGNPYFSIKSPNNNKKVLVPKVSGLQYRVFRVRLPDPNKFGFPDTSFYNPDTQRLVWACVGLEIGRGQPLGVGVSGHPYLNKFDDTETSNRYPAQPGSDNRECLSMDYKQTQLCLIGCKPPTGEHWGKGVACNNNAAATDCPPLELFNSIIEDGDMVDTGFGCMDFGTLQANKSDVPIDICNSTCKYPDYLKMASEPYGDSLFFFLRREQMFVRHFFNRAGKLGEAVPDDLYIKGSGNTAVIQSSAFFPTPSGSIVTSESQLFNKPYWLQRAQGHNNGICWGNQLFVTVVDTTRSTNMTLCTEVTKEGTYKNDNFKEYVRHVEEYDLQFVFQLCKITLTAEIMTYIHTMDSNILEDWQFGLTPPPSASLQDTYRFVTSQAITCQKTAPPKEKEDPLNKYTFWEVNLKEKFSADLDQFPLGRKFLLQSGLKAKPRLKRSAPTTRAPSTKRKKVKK

[9] = molecular target: T5, HPV58 L1 pentamer (Human papillomavirus type 58 (GenBank …, UniProt P26535)); test: SPR; Biacore 3000; MAb (10 ug/ml) […]; HBS (10 mM HEPES pH 7.4, 150 mM NaCl); […]; settings: both partners purified
T5 construct: also called HPV58p; HPV58 pentamer; source: cloned into pTO-T7

[10] = molecular target: T6, HPV58 L1 VLP D154A (human papillomavirus type 58) (UniProt P26535); test: ELISA; indirect ELISA; wells coated with wild-type or mutant VLPs or pentamers (300 ng/well, overnight at 4°C); 2-fold serial dilutions of the antibody, 1 h at 37°C; detected with HRP goat anti-mouse IgG
T6 sequence: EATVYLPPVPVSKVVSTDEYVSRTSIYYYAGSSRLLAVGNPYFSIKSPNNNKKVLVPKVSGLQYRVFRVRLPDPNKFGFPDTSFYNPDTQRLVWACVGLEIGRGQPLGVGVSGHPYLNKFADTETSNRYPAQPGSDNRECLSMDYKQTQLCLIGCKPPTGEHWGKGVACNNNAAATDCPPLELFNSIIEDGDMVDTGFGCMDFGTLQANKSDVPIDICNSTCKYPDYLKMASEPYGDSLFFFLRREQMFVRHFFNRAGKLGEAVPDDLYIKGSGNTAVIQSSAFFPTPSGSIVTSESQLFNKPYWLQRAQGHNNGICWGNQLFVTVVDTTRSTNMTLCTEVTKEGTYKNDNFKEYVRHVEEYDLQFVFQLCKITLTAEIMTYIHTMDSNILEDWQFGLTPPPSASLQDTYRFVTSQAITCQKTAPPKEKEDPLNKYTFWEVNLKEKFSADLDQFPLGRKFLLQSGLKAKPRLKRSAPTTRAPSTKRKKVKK

[11] = molecular target: T7, HPV58 L1 VLP R161A (human papillomavirus type 58) (UniProt P26535); test: as above
T7 sequence: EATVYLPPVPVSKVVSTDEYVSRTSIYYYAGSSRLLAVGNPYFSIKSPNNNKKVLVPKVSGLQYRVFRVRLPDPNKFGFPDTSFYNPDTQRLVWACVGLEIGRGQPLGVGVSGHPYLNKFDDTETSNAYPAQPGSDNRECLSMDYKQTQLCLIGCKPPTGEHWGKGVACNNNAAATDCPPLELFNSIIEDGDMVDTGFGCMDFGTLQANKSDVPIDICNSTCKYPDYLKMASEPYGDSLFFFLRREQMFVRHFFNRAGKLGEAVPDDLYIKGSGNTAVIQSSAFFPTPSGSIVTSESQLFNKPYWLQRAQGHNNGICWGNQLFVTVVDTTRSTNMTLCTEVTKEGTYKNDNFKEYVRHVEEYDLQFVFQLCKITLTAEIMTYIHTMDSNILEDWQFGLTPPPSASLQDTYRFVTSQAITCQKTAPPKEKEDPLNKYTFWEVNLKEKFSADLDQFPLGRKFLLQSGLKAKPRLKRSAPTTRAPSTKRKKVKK

[12] = molecular target: T8, HPV58 L1 VLP N308A (human papillomavirus type 58) (UniProt P26535); test: as above
T8 sequence: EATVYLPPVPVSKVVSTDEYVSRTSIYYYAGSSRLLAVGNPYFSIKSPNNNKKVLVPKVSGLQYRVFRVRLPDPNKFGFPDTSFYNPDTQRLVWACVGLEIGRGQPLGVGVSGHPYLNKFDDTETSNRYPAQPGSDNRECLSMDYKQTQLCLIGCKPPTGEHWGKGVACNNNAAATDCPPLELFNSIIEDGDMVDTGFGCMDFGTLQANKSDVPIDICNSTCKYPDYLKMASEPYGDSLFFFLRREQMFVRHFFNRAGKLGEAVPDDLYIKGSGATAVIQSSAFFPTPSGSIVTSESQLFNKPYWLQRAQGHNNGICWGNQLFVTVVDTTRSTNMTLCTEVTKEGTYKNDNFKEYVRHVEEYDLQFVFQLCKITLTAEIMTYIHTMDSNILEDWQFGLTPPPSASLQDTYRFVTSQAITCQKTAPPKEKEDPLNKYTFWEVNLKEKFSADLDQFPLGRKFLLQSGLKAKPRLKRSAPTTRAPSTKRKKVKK

[13] = molecular target: HPV33 KAT L1 VLP (triple mutant K161R, A168S, T308N) (human papillomavirus type 33) (UniProt P06416)
[14] = molecular target: T9, HPV58 L1 pentamer (human papillomavirus type 58, UniProt P26535); test: crystal structure; settings: both partners purified
T9 construct: also called HPV58p; HPV58 pentamer

B1: HPV58 L1 pentamer (natural protein)
chain: EATVYLPPVPVSKVVSTDEYVSRTSIYYYAGSSRLLAVGNPYFSIKSPNNNKKVLVPKVSGLQYRVFRVRLPDPNKFGFPDTSFYNPDTQRLVWACVGLEIGRGQPLGVGVSGHPYLNKFDDTETSNRYPAQPGSDNRECLSMDYKQTQLCLIGCKPPTGEHWGKGVACNNNAAATDCPPLELFNSIIEDGDMVDTGFGCMDFGTLQANKSDVPIDICNSTCKYPDYLKMASEPYGDSLFFFLRREQMFVRHFFNRAGKLGEAVPDDLYIKGSGNTAVIQSSAFFPTPSGSIVTSESQLFNKPYWLQRAQGHNNGICWGNQLFVTVVDTTRSTNMTLCTEVTKEGTYKNDNFKEYVRHVEEYDLQFVFQLCKITLTAEIMTYIHTMDSNILEDWQFGLTPPPSASLQDTYRFVTSQAITCQKTAPPKEKEDPLNKYTFWEVNLKEKFSADLDQFPLGRKFLLQSGLKAKPRLKRSAPTTRAPSTKRKKVKK
notes: also called HPV58p; HPV58 pentamer
- stoichiometry N [1]: 5

B2: MAb 28F10 (antibody, V domains shown)
VH: DVKLVESGGGLVKPGGSLKLSCAASGFPFSDYTMSWIRQTPEKRLEWVASISSGGTYTYYPDTVKGRFTISRDNAKNTLYLQMSSLKSEDTAMFYCTRASPYYDYDEGYMDYWGQGTSVTVSS
VL: DVVMTQTPLSLPVSLGDQASISCRSSQSLVHSNGNTYLHWYLQKSGQSPKLLIYKVSNRFSGVPDRFSGSGSGTDFTLKISRVEAEDLGVYFCSQSTHVPFTFGAGTKLELK
- EC50 [2]: 0.0464 µg/mL
- EC50 [3]: 0.005 µg/mL
- fold increase of the EC50 against the WT HPV59 pentamer [4]: 20 fold
- fold increase of the EC50 against the WT HPV59 pentamer [5]: 10 fold
- IC50 of neutralisation of HPV18 TQG PsVs [6]: 0.0097 µg/mL

B3: MAb A12A3 (antibody, V domains shown)
VH: EVQLQQSGAELVRPGALVKLSCKASGFNIKDYYMHWVKQRPEQGLEWIGWIDPENGKTIYDPRFRGKASITADTSSNTAYLQLSSLTSEDAAVYYCATSNYRYDRSFDYWGQGTTLTVSA
VL: DIQMTQSPSSLFASLGGKVTITCKASQDINKYIAWFQHKPGKGPRLLIHYTFTLQPGIPSRFSGSGSGRDYSFSISNLEPEDIATYYCLQYHNLYTFGGGTKLEIK
notes: also called A12A3 IgG
- EC50 [7]: 0.0104 µg/mL
- EC50 [8]: 0.0085 µg/mL
- Ka [9]: 1.91e+08 M⁻¹
- Kd [9]: 5.33 nM
- koff [9]: 0.0004 s⁻¹
- kon [9]: 78400 M⁻¹ s⁻¹
- fold increase of the EC50 against the WT HPV58 VLP [10]: 2 fold
- fold increase of the EC50 against the WT HPV58 VLP [11]: 80 fold
- fold increase of the EC50 against the WT HPV58 VLP [12]: 2 fold
- IC50 of neutralisation of the HPV33 KAT PsV mutant [13]: 4.3 µg/mL

B4: A12A3 Fab (Fab, V domains shown)
VH: EVQLQQSGAELVRPGALVKLSCKASGFNIKDYYMHWVKQRPEQGLEWIGWIDPENGKTIYDPRFRGKASITADTSSNTAYLQLSSLTSEDAAVYYCATSNYRYDRSFDYWGQGTTLTVSA
VL: DIQMTQSPSSLFASLGGKVTITCKASQDINKYIAWFQHKPGKGPRLLIHYTFTLQPGIPSRFSGSGSGRDYSFSISNLEPEDIATYYCLQYHNLYTFGGGTKLEIK
notes: also called Fab fragment of A12A3; source: papain digestion of MAb A12A3, purified with DEAE-5PW exchange
- stoichiometry N [14]: 1 Fab per pentamer
